Data published in patent US10391150B2, “Treatments for migraine and related disorders” (The University of Chicago, priority 2011, dated 2019).
Entries after “also recorded” stand apart in the source; their conditions may differ.

B1: Interferon-gamma (protein, listed as Homo sapiens)
chain: MKYTSYILAFQLCIVLGSLGCYCQDPYVKEAENLKKYFNAGHSDVADNGTLFLGILKNWKEESDRKIMQSQIVSFYFKLFKNFKDDQSIQKSVETIKEDMNVKFFNSNKKKRDDFEKLTNYSVTDLNVQRKAIHELIQVMAELSPAAKTGKRKRSQMLFRGRRASQ

Assays:
Format in all cases: cell-based, rat
[1] = system: OS from cLTP in hippocampal slice cultures; assay: OS / reactive oxygen species generated from chemical long-term potentiation (cLTP) in slice cultures; details: 3 days treatment (IFN-γ 500 U/mL; IL-11; IGF-1), compared to shams
Experimental: This beneficial effect of low-level IFN-γ is supported by results from rats. In rats, enrichment, which occurs with hippocampal learning, led to a significant elevation in hippocampal T-cells, IFN-γ and MBP.
Experiments were performed in rat hippocampal slices cultures and SD induced as previously described (Pusic et al., 2011). Results were derived from n≥3-6/group. […] This is consistent with the neural activity increase seen after SD, which mimics the hyperexcitability evident in migraine patients.
This prompted the inventors to examine whether insulin could reduce SD susceptibility by increasing CA3 pyramidal neuron bursting. The inventors induced SD trans-synaptically in rat HSC using electrical stimuli (100 μs pulses @ 10 Hz for 1 s) ranging from 1 to 10,000 nC in order to determine SD threshold in sham and experimental groups (Pusic et al., 2011). Results were based on n≥3-6/group. […] This insulin dose approximates the pharmacological levels seen in humans treated with nasal insulin. […] The inventors hypothesized that the effect of insulin occurred through IGF-1 receptor cross-talk.
The inventors use a well-accepted method for inducing cLTP in slice cultures (Kraig et al., 2010; Otmakhov et al., 2004a; Otmakhov et al., 2004b; Kopec et al., 2006). The protocol consists of raising cAMP levels and increasing synaptic activity using rolipram/forskolin applied in a Mg^2+-free Ringer's solution (36° C.) for 5 min, then allowing slices to recover in normal media.

[2] = system: spreading depression (SD) in hippocampal slice cultures; assay: Spreading depression (SD) threshold / susceptibility in hippocampal slice cultures
Source text: FIGS. 2A-2E. […] (FIG. 2A) Experiments begin with determination of the current needed to maximize standard CA3 area field potential responses. Half-maximal intensity is then used to elicit CA3 area evoked field potentials from dentate gyrus bipolar electrical stimulation. This documents the normalcy of evoked synaptic responses between preparations. If a slice's field excitatory post synaptic potentials are not at least 3 mV, slices are discarded. Next, field potential trains (i) are noted to verify that preparations are healthy enough to follow 10 Hz stimulation (e.g., amplitudes of vertical deviations in fast potential records are similar) and the current needed to trigger SD (ii) is registered (Pusic and Kraig, 2010).
(FIG. 8a) Exemplary CA3 area evoked field potential. Experiments begin with establishment of the current intensity needed to evoke maximal field potential responses; stimuli of half-maximal intensity were then used to elicit subsequent field potentials. Only those cultures with CA3 pyramidal neuron post-synaptic responses of at least 3 mV were used for experiments. (FIG. 8b) CA3 response to dentate gyrus bipolar stimulation (10 pulses at 10 Hz, 500 μA) was used to elicit a spreading depression (SD), as shown in (FIG. 8c). (FIG. 8c) The spreading depression (SD) shown here was induced by the stimulation/response (arrow) shown in (FIG. 8b). […] Comparisons between groups made via Student's t-test.
The inventors induced SD trans-synaptically in rat HSC using electrical stimuli (100 μs pulses @ 10 Hz for 1 s) ranging from 1 to 10,000 nC in order to determine SD threshold in sham and experimental groups (Pusic et al., 2011). Results were based on n≥3-6/group. […] This insulin dose approximates the pharmacological levels seen in humans treated with nasal insulin.
Slice cultures were prepared and maintained as previously described (Mitchell et al., 2010a,). After 18 days in vitro (DIV), slice cultures were transferred to serum-free media that included additional calcium and magnesium. Cultures were screened at 21 DIV to ensure no pyramidal neuron death was present. Standard electrophysiological recordings were performed by placing a slice culture insert in a PDMI recording chamber with controlled temperature and pH (FIG. 1). The recording chamber was aerated with 5% CO2-balance air at 36° C. and media flowing at 1.2 mL/min or was held static around the slice culture insert. A recording electrode was placed at the CA3 pyramidal cell layer and a stimulating electrode was placed at the surface of the dentate gyrus. Recordings were initiated prior to placing the stimulating electrode on the culture to ensure no spreading depression was triggered as a result.
Studies began with determination of the current needed to maximize standard CA3 area field potential responses. This documented the normalcy of evoked synaptic responses between preparations. If a slice's field EPSPs were not at least 3-4 mV, it was discarded.
Next, trans-synaptically evoked SD was determined. Here, the inventors stimulated slices via the dentate gyrus with 100 μs pulses delivered at 10 Hz for 1 sec every 1-2 minutes at increasing μA current intensities until SD occurred.
Slice cultures are prepared, maintained, and induced to fire SD as previously described using trans-synaptic excitation of CA3, where SD is initiated (FIG. 4) (Kunkler et al., 2005; Pusic et al., 2011).

glutathione = assay: Slice culture glutathione by Thiol Tracker; details: pulsed exposure to IFN-γ or exosomes from IFN-γ-pulsed slice cultures
Source text: FIGS. 17A-17B. Detection of an IFN-γ-induced rise in slice culture glutathione using Thiol Tracker™, a fluorescent indicator of glutathione. […] (FIG. 17B) Furthermore, this increase is significant (p<0.001; n≥5/group) and can be mimicked by exposure to exosomes isolated from slice cultures activated by pulsed-exposure to IFN-γ.
Since stimulated immune cells release exosomes that are capable of reducing OS in recipient cells, the inventors next tested whether IFN-γ stimulated slice cultures (and possibly their microglia) to release exosomes that mimicked the effects of IFN-γ. […] IFN-γ, when pulsed onto slice cultures for 12 hours triggers the release of nutritive exosomes that mimic the effect of pulsed exposure to IFN-γ (16, 17). Since pulsed-exposure to IFN-γ reduces OS and glutathione is a naturally occurring inhibitor of neutral sphingomyelinase, the inventors probed for an IFN-γ-induced rise in slice culture glutathione using Thiol Tracker™, a fluorescent indicator of glutathione (FIG. 17).

[3] = system: myelin basic protein (MBP); assay: Myelin basic protein (MBP) Western blot in hippocampal slice cultures
Experimental: FIGS. 14A-14C. Reduced myelin basic protein (MBP) from SD depends on IFN-γ/T-cell activation and sphingomylinase. […] Thus, confirming involvement of T cells.
FIGS. 15A-15C. Physiological and transient elevation [i.e., phasic (see FIG. 1)] of IFN-γ triggers completely opposite effects. Transient (i.e., 500 U/mL×12 hours; all groups n≥5) exposure of hippocampal slice cultures was nutritive when assessed seven days later.

Molecule	OS / reactive oxygen species generated from cLTP [1]	increase of SD threshold compared to control ([2]; 3-day exposure to IGF-1) [fold]	increase of SD threshold compared to control ([2]; 7-day phasic exposure to IGF-1 (12 hours a day)) [fold]	increase of SD threshold compared to control ([2]; acute (15-30 min) exposure to IGF-1) [fold]	relative SD threshold levels ([2]; coincubation with ascorbate and IGF-1 versus IGF-1 alone)	slice culture / microglial glutathione (glutathione)	susceptibility to SD ([2]; IFN-γ 500 U/mL, at 1 day)	MBP levels ([3]; IFN-γ with co-administration of TNF-α (100 ng/mL))	MBP levels ([3]; chronically applied IFN-γ 500 U/mL × 24 hours)	MBP versus baseline ([3]; transient (pulsed) IFN-γ 500 U/mL × 12 hours, assessed seven days later)
Insulin-like growth factor 1 [IGF-1]	significant reduction in OS from cLTP	75	22	24	1.00±0.31					
B1	significantly reduced reactive oxygen species					selectively increases microglial glutathione	significantly increased susceptibility to SD	further decline in MBP	reduce MBP levels	MBP rises above baseline; also recorded: increased above baseline
